How the values were obtained:
[1] = target: T1, PIK3CA H1047L (10-mer) peptide on HLA-A*03:01 (human); assay: cytokine release
T1 peptide: DALHGGWTTK

[2] = target: T2, PIK3CA H1047L (8-mer) peptide on HLA-A*03:01 (human); assay: cytokine release
T2 peptide: LHGGWTTK

[3] = target: T3, PIK3CA H1047L peptide on HLA-A*03:01 (human); assay: multimer staining
T3 peptide: ALHGGWTTK

Measured: binding result

B1: 1022T8 (TCR, V domains shown)
Valpha: GDSVTQMEGPVTLSEEAFLTINCTYTATGYPSLFWYVQYPGEGLQLLLKATKADDKGSNKGFEATYRKETTSFHLEKGSVQVSDSAVYFCALTVGGSYIPTFGRGTSLIVHP
Vbeta: DTEVTQTPKHLVMGMTNKKSLKCEQHMGHRAMYWYKQKAKKPPELMFVYSYEKLSINESVPSRFSPECPNSSLLNLHLHALQPEDSALYLCASSQGGQGWRETQYFGPGTRLLVL
recognises: all assays above

Reference: US20260139026A1 (published 2026)
